This assay addresses NKG2D receptor on primary human NK cells (human (endogenous in primary NK cells)) (UniProt P26718).

Results on 1 substance are retold here after publication PMC6685158.

Sequence of UniProt P26718 (P26718 whole entry): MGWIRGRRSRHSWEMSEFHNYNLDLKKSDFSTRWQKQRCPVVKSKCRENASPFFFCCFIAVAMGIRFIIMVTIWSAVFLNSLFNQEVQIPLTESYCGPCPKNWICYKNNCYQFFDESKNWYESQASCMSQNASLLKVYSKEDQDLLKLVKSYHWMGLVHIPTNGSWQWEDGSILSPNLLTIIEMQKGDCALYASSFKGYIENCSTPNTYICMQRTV

Consider “Full-length human MICA*002 on C1R-MICA*002 cells (from UniProt Q29983 24-383) (ligand)”, for which the NK cell cytolytic activity (7-AAD uptake of CD56- target cells), fresh NK cells with target cells 4 h at 10 to 1 effector to target ratio; parental C1R control approximately 15% was 40%.
